Half-life, Kd and tissue uptake data for five molecules are collected here from patent US20200283482A1, “BICYCLIC PEPTIDE LIGAND PRR-A CONJUGATES AND USES THEREOF” (BicycleRD Limited, priority 2017, published 2020).

Read-outs that look alike come from different tables or passages of the source. Starred links: 1 amine or outer side, 2 acyl side, 3 side chain; linkers in the order of their positions; H or OH if unused. Positions of bridges follow the written chain, without caps; N, C: chain ends. Non-standard residues stand in square brackets, D forms with d. Residues, ends and D or L forms follow the SMILES beside them. *: point of attachment. X3 = CCOCc1nc2c(NC(=O)OCc3ccc(NC(=O)[C@H](CCCNC(N)=O)NC(=O)[C@@H](NC(=O)Cn4cc(CCC(=O)*)nn4)C(C)C)cc3)nc3ccccc3c2n1CC(C)(C)O; X2 = CCOCc1nc2c(NC(=O)OCCSCC(=O)*)nc3ccccc3c2n1CC(C)(C)O; 1Nal = N[C@@H](Cc1cccc2ccccc12)C(=O)O; TBMB = c1c(C[*:1])cc(C[*:3])cc1C[*:2]; Tle = CC(C)(C)[C@H](N)C(=O)O; βAla = NCCC(=O)O; Sar = CNCC(=O)O

The nature of data set [1]: Plasma stability, cyno. The format is in vitro ADME. As to conditions: cynomolgus monkey, plasma, pH 7.4.
The nature of data set [2]: Plasma stability, mouse. The format is in vitro ADME. As to conditions: mouse, plasma, pH 7.4.
Data set [3] can be described thus: Blood stability, mouse. As to conditions: male, CD-1, mouse. Format: in vitro ADME, CD-1 mouse. As to the method: CD-1 mouse blood (n≥2, male, fasted overnight) is collected from animals housed at an internal facility. (EDTA-K2 is used as anticoagulant)
The test compounds and positive control stock solutions are prepared to 10 mM in DMSO or ultrapure water. Control compounds bisacodyl, enalapril and propantheline known to be metabolised by blood are also incubated alongside each batch of test compounds I-7, I-22, I-24, I-25, I-27, and I-29 to I-33. The dosing solutions of test compounds and controls are prepared by diluting the stock solution with 45% MeOH/H2O to achieve 100 uM. Test compound solutions (final incubation concentration=2 μM) are incubated with blood (final DMSO concentration≤1%) at six different time points (0, 1, 2, 4, 6 and 24 hours) in duplicate (n=2). The reaction is terminated by adding 100 uL ultra-pure water, mixing well, then adding 800 uL of 100% methanol containing 200 ng/mL tolbutamide and 200 ng/mL labetalol as internal standards. Samples are then vortexed and centrifuged at 3200×g for 20 minutes. Following centrifugation, the concentration of test compound in the supernatant is determined semi-quantitatively by LC-MS/MS. The percentage of test compound remaining at the individual time points relative to the 0 hour sample is then reported. The percent remaining of test compound after incubation in blood is calculated using following equation: Percent Remaining=100×(PAR at appointed incubation time/PAR at T0 time) where PAR is the peak area ratio of analyte versus internal standard (IS).

Data set [4] can be described thus: Plasma stability, human. Format: in vitro ADME. As to conditions: human, plasma, pH 7.4.
Data set [5] is described as follows: Plasma stability, rat. The format is in vitro ADME. As to conditions: rat, plasma, pH 7.4.
A short description of data set [6]: Plasma stability, dog. Format: in vitro ADME. As to conditions: dog, plasma, pH 7.4. As to the method: The pooled frozen mouse, rat, dog, monkey or human plasma is thawed in a water bath at 37° C. prior to experiment. Plasma is centrifuged at 4000 rpm for 5 min and the clots are removed if any. […] For positive controls, 100 μM intermediate solution is prepared by diluting 20 μL of the stock solution with 180 μL 45% MeOH/H2O. […] For compounds I-7 to […]-17, […]-22, and […]-33, at each time point (0, 1, 2, 4, 6 and 24 hr), reactions were stopped by removing the plates from water bath and 200 μL 20 mM NH4OAC mix well first and then adding 800 μL of ice-cold stop solution (200 ng/mL Labetalol, 200 ng/mL Tolbutamide, 500 ng/mL N6-Ben and 40 mM DBAA in 100% Methanol). […] Sample plates were vortexed immediately on a plate shaker at 800 rpm for 10 min and then centrifuged at 4,000 rpm for 10 min. An aliquot of supernatant (200 μL) is transferred from each well before submitting to LC-MS/MS analysis. The percentage of test compound remaining at the individual time points relative to the 0 hour sample is calculated using following equation: Percent Remaining=100×(PAR at appointed incubation time/PAR at T0 time) where PAR is the peak area ratio of analyte versus internal standard (IS).

For data set [7], the target named is T1, hemopexin domain of MT1 (Homo sapiens, UniProt P50281). Description: Fluorescence polarization binding to MT1-MMP hemopexin domain. As to conditions: read-out: apparent Kd. As for the experimental part:
Direct Binding Fluorescence Polarization or Anisotropy Assays are performed by titrating a constant concentration of fluorescent tracer (here, the fluoresceinated bicyclic peptide to be studied) with its binding partner (here, the MT1-MMP hemopexin domain). As the concentration of binding partner increases during the titration, the polarization signal changes in proportion to the fraction of bound and unbound material. This allows determination of […] (Kd) quantitatively. Assay data can be fit using standard ligand binding equations.
The titrant (binding partner) concentration is varied from 0.1 nM up to typically 5 μM. The range is chosen such that the maximum change in fluorescent polarization can be observed. Buffers employed are phosphate buffered saline in the presence of 0.01% Tween. Experiments were run in black 384 well low-bind/low volume plates (Corning 3820), and the fluorescent polarization signal was measured using a BMG Pherastar FS plate reader. […]
Here, a preformed complex of PEX with the fluorescent PEX-binding tracer is titrated with free, non-fluoresceinated bicyclic peptide. […] Dissociation of the complex can be measured quantitatively, and the Kd of the competitor (titrant) to the target protein determined. The advantage of the competition method is that the affinities of non-fluoresceinated bicyclic peptides can be determined accurately and rapidly. […]
(In general: Polarisation of emitted light reports the rotation of a fluorescent probe.)

A short description of data set [8]: Tumor localization after IV injection. The format is in vivo. As to conditions: mouse, mice bearing MT1-positive tumor xenografts, in less than 60 minutes, read-out: tumor localization level.
Data set [9] has as its target T1, hemopexin domain of MT1. As to conditions: MT1-MMP binder formed with TBMB scaffold, as described in WO 2016/067035; cited from earlier work.

As a reminder, the half-life is how long it takes for the measured level to halve. Read a high half-life as slow decline. Regarding `CCOCc1nc2c(NC(=O)OCCSCC(=O)NCCC(=O)N(C)CC(=O)N(C)CC(=O)N(C)CC(=O)N(C)CC(=O)N(C)CC(=O)N(C)CC(=O)N(C)CC(=O)N(C)CC(=O)N(C)CC(=O)N(C)CC(=O)N[C@@H](C)C(=O)N[C@H]3CSCc4cc5cc(c4)CSC[C@H](NC(=O)[C@@H](C)NC(=O)[C@H](Cc4cccc6ccccc46)NC(=O)[C@H](CCC(=O)O)NC(=O)[C@H](CC(N)=O)NC(=O)[C@@H](C)NC3=O)C(=O)N[C@@H](CCC(=O)O)C(=O)N[C@@H](CC(=O)O)C(=O)N[C@@H](Cc3ccccc3)C(=O)N[C@@H](Cc3ccc(O)cc3)C(=O)N[C@@H](CC(=O)O)C(=O)N[C@@H](C(C)(C)C)C(=O)N[C@H](C(N)=O)CSC5)nc3ccccc3c2n1CC(C)(C)O` [I-7] ({X2-βAla}-[Sar][Sar][Sar][Sar][Sar][Sar][Sar][Sar][Sar][Sar]AC[dA]NE[1Nal][dA]CEDFYD[Tle]C-NH2; linker 12-18-25 via TBMB), the half-life at 2 μM in [1] was more than 24 h; in [2] it was 6 to 24 h; in data set [3], less than 2 h; in data set [4] it was more than 24 h; in data set [5] it was 6 to 24 h; in data set [6] it was more than 24 h.

Turning to `CCOCc1nc2c(NC(=O)OCc3ccc(NC(=O)[C@H](CCCNC(N)=O)NC(=O)[C@@H](NC(=O)Cn4cc(CCC(=O)NCCC(=O)N(C)CC(=O)N(C)CC(=O)N(C)CC(=O)N(C)CC(=O)N(C)CC(=O)N(C)CC(=O)N(C)CC(=O)N(C)CC(=O)N(C)CC(=O)N(C)CC(=O)N[C@@H](C)C(=O)N[C@H]5CSCc6cc7cc(c6)CSC[C@H](NC(=O)[C@@H](C)NC(=O)[C@H](Cc6cccc8ccccc68)NC(=O)[C@H](CCC(=O)O)NC(=O)[C@H](CC(N)=O)NC(=O)[C@@H](C)NC5=O)C(=O)N[C@@H](CCC(=O)O)C(=O)N[C@@H](CC(=O)O)C(=O)N[C@@H](Cc5ccccc5)C(=O)N[C@@H](Cc5ccc(O)cc5)C(=O)N[C@@H](CC(=O)O)C(=O)N[C@@H](C(C)(C)C)C(=O)N[C@H](C(N)=O)CSC7)nn4)C(C)C)cc3)nc3ccccc3c2n1CC(C)(C)O` [I-22] ({X3-βAla}-[Sar][Sar][Sar][Sar][Sar][Sar][Sar][Sar][Sar][Sar]AC[dA]NE[1Nal][dA]CEDFYD[Tle]C-NH2; linker 12-18-25 via TBMB), the half-life at 2 μM in data set [1] is more than 24 h; in data set [2] it was 2 to 6 h; in [3] it was less than 2 h; in data set [4] it was more than 24 h; in [5], 2 to 6 h; in [6], more than 24 h.

With `C[C@H](NC(=O)CN(C)C(=O)CN(C)C(=O)CN(C)C(=O)CN(C)C(=O)CN(C)C(=O)CN(C)C(=O)CN(C)C(=O)CN(C)C(=O)CN(C)C(=O)CN(C)C(=O)CCN)C(=O)N[C@H]1CSCc2cc3cc(c2)CSC[C@H](NC(=O)[C@@H](C)NC(=O)[C@H](Cc2cccc4ccccc24)NC(=O)[C@H](CCC(=O)O)NC(=O)[C@H](CC(N)=O)NC(=O)[C@@H](C)NC1=O)C(=O)N[C@@H](CCC(=O)O)C(=O)N[C@@H](CC(=O)O)C(=O)N[C@@H](Cc1ccccc1)C(=O)N[C@@H](Cc1ccc(O)cc1)C(=O)N[C@@H](CC(=O)O)C(=O)N[C@@H](C(C)(C)C)C(=O)N[C@H](C(N)=O)CSC3` [N241] (H-[βAla][Sar][Sar][Sar][Sar][Sar][Sar][Sar][Sar][Sar][Sar]AC[dA]NE[1Nal][dA]CEDFYD[Tle]C-NH2; linker 13-19-26 via TBMB), the Kd in [7] was approximately 2 nM.

Regarding `C[C@H](NC(=O)CN(C)C(=O)CN(C)C(=O)CN(C)C(=O)CN(C)C(=O)CN(C)C(=O)CN(C)C(=O)CN(C)C(=O)CN(C)C(=O)CN(C)C(=O)CN(C)C(=O)CCN)C(=O)N[C@H]1CSCc2cc3cc(c2)CSC[C@H](NC(=O)[C@@H](C)NC(=O)[C@H](Cc2cccc4ccccc24)NC(=O)[C@H](CCC(=O)O)NC(=O)[C@H](CC(N)=O)NC(=O)[C@@H](C)NC1=O)C(=O)N[C@@H](CCC(=O)O)C(=O)N[C@@H](CC(=O)O)C(=O)N[C@@H](Cc1ccccc1)C(=O)N[C@@H](Cc1ccc(O)cc1)C(=O)N[C@@H](CC(=O)O)C(=O)N[C@@H](C(C)(C)C)C(=O)N[C@H](C(N)=O)CSC3` [^177Lu-loaded N241, metal not drawn] (H-[βAla][Sar][Sar][Sar][Sar][Sar][Sar][Sar][Sar][Sar][Sar]AC[dA]NE[1Nal][dA]CEDFYD[Tle]C-NH2; linker 13-19-26 via TBMB; N-terminus and C-terminus assumed), the tissue uptake in data set [8] lay within 15 to 20 %ID/g.

On to “βAla-Sar10-A-C(D-Ala)NE(1Nal)(D-Ala)CEDFYD(tBuGLy)C [17-69-07-N241]”, for which the Kd in data set [9] is 1.2 nM.
